Measurements reported in PMC6530996, “HspB1 phosphorylation regulates its intramolecular dynamics and mechanosensitive molecular chaperone interaction with filamin C” (Science Advances, 2019).
One block for each molecule: values may come before it. Non-standard residues stand in square brackets, D forms with d. No end group written: not given here. pS = N[C@@H](COP(=O)(O)O)C(=O)O

Tests used:
[1] = tested on: HspB1_84–170; assay: crystal structure of HspB1_84–170 with PPR peptide; assay type: binding, human; conditions: X-ray, 5 mM peptide, space group P12_11, 2.1 Å
Source text: We next carried out crystallographic trials, using a strategy of mixing peptide mimics of the PPR, varying in length and degree of phosphorylation, with a well-ordered ACD construct (HspB1_84–170). […] The monomers within each dimer differ at their N-terminal ends: The β2 strand of one is intramolecularly hydrogen-bonded to its own β3 strand, whereas in the other these residues are extended and stabilized by contacts with a β4-β8 groove of a neighboring dimer (Fig. 3, A and B). This groove also acts as a binding pocket for an intrasubunit interface within the C-terminal region (fig. S4B) ([29]).
Crystals were obtained following initial screens using HspB1_84–170 (18 mg ml^−1) with a fourfold molar excess of one of several peptide mimics of the N-terminal region varying in length and degree of phosphorylation. […]
Diffraction data were integrated using iMosflm and scaled and merged using Aimless in the CCP4 suite with truncation at 2.1 Å. Phases were determined by molecular replacement using Phaser with a previous HspB1 x-ray structure input as a search model (PDB 4MJH, modified by removal of flexible loops, bound C-terminal peptide, and β2 strands). […]

[2] = biological target: filamin C (FLNC) domains 18-21, 1943-2408 (UniProt Q14315); assay: gas-phase collisional dissociation, tandem native MS; conditions: reference: unphosphorylated HspB1 80-88 peptide; sites S82
[3] = native MS of HspB1_77–171 oligomeric state; assay type: physicochemical; conditions: 10 μM, 200 mM ammonium acetate pH 6.9, 10-fold molar excess DTT
Source text: To test this hypothesis, we recorded mass spectra under conditions preserving noncovalent interactions. […] The combined NMR and mass spectrometry (MS) data are therefore consistent with phosphorylation modulating an order-to-disorder transition by β2 and the PPR that leads to oligomer dissociation via rearrangement of intradimer contacts.
A pET28d(+) vector encoding human HspB1 ACD (residues 84 to 171) was transformed into Escherichia coli BL21(DE3) cells (Agilent) and expressed and purified as described previously ([29]). For crystallography, residue K171 was deleted using a site-directed mutagenesis kit (Agilent) and HspB1_84–170 was expressed and purified as described. […] Concentrations were determined by using a bicinchoninic acid assay (Thermo Pierce).
Because HspB1 can form disulfide-linked dimers, experiments involving the ACD were performed in the presence of 10-fold molar excess DTT. […] Native MS and IM-MS data were recorded on a Synapt G1 mass spectrometer (Waters) modified for the transmission of intact noncovalent protein complexes. HspB1_77–171 variants were analyzed at a concentration of 10 μM in 200 mM ammonium acetate (pH 6.9). […]

[4] = biological target: T1, human FLNC domains 18 to 21 (FLNC_(d18–21)), EEF-tagged (human, UniProt Q14315 1943-2408); assay: native MS; native IM-MS of mixtures of FLNC_(d18–21) or FLNC_(d18–21,ΔI) with HspB1_(84–171), HspB1 peptides or an excess of control peptides; 200 mM ammonium acetate pH 6.9; conditions: both partners purified
T1 construct: human filamin C, domains 18 to 21, residues 1943 to 2408 of UniProt Q14315; Modified pET23a/EEF vector; No cleavage of the tags is described; also called FLNC fragment; source: E. coli BL21(DE3) pLysS, purified (HisTrap, SEC Superdex 200); not shown: EEF, C-terminal, kept
T1 sequence (looked up): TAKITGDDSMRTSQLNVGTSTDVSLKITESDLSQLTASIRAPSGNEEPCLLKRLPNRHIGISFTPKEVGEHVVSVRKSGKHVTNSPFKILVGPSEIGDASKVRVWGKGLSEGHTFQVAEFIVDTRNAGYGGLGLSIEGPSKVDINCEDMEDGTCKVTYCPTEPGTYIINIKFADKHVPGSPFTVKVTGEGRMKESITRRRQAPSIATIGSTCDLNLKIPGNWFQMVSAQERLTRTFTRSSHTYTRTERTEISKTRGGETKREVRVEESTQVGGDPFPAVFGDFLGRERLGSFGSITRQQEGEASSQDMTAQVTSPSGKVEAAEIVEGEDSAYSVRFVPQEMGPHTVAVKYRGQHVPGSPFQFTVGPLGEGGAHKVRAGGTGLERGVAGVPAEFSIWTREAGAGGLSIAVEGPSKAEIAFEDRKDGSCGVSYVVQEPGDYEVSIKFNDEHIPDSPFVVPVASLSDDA

[5] = biological target: T2, FLNC_(d18–21,ΔI), FLNC domains 18 to 21 lacking the d20 insertion (human, UniProt Q14315 1943-2408, excluding 2163 to 2243); assay: as above; conditions: both partners purified
T2 construct: human filamin C, residues 1943 to 2408 of UniProt Q14315 excluding 2163 to 2243; The results speak of 82 insertion residues; 2163 to 2243 are 81; source: E. coli BL21(DE3) pLysS, purified (HisTrap, SEC Superdex 200)
T2 sequence (looked up): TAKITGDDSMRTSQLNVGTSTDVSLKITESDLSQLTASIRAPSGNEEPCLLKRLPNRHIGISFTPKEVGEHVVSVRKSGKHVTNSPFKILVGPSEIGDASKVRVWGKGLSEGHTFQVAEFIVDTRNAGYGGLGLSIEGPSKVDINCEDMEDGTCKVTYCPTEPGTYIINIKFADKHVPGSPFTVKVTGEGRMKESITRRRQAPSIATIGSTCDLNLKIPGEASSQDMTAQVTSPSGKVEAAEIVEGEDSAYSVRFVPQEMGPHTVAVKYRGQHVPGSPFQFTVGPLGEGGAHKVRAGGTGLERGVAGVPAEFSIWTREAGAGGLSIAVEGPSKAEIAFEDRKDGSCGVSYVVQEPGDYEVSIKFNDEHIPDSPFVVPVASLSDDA

[6] = biological target: T1, human FLNC domains 18 to 21 …; assay: native MS; titration: FLNC_(d18–21) constant at 5 μM, peptide 5 to 160 μM, 200 mM ammonium acetate pH 6.9, acetonitrile vapor; fit with three equivalent binding sites (UniDec); conditions: both partners purified
[7] = biological target: T1, human FLNC domains 18 to 21 …; assay: cell-based or functional assay
[8] = biological target: T3, HspB1_(84–170), ACD construct for crystallography (human, UniProt P04792 84-170); assay: crystal structure; HspB1_(84–170) 16 mg/ml with 5 mM peptide in PBS pH 7.0; 22% PEG 3350, 0.02 M sodium potassium diphosphate, 0.1 M bis-tris propane pH 7.5; 2.1 Å, space group P12_(1)1; conditions: both partners purified
T3 construct: human HspB1 ACD, residues 84 to 170 (K171 deleted from the 84-171 construct); Dimer in the crystal (four dimers in the asymmetric unit); The residual Gly-Ser overhang that the methods tell of 'both proteins' may also stand on this construct; also called HspB1 ACD
T3 sequence (P04792 84-170): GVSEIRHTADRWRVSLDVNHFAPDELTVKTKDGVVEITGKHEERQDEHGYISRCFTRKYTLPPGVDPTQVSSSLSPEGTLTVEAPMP

filamin C (FLNC) domains 18-21, 1943-2408, sequence (Q14315 whole entry, looked up, tested part not stated): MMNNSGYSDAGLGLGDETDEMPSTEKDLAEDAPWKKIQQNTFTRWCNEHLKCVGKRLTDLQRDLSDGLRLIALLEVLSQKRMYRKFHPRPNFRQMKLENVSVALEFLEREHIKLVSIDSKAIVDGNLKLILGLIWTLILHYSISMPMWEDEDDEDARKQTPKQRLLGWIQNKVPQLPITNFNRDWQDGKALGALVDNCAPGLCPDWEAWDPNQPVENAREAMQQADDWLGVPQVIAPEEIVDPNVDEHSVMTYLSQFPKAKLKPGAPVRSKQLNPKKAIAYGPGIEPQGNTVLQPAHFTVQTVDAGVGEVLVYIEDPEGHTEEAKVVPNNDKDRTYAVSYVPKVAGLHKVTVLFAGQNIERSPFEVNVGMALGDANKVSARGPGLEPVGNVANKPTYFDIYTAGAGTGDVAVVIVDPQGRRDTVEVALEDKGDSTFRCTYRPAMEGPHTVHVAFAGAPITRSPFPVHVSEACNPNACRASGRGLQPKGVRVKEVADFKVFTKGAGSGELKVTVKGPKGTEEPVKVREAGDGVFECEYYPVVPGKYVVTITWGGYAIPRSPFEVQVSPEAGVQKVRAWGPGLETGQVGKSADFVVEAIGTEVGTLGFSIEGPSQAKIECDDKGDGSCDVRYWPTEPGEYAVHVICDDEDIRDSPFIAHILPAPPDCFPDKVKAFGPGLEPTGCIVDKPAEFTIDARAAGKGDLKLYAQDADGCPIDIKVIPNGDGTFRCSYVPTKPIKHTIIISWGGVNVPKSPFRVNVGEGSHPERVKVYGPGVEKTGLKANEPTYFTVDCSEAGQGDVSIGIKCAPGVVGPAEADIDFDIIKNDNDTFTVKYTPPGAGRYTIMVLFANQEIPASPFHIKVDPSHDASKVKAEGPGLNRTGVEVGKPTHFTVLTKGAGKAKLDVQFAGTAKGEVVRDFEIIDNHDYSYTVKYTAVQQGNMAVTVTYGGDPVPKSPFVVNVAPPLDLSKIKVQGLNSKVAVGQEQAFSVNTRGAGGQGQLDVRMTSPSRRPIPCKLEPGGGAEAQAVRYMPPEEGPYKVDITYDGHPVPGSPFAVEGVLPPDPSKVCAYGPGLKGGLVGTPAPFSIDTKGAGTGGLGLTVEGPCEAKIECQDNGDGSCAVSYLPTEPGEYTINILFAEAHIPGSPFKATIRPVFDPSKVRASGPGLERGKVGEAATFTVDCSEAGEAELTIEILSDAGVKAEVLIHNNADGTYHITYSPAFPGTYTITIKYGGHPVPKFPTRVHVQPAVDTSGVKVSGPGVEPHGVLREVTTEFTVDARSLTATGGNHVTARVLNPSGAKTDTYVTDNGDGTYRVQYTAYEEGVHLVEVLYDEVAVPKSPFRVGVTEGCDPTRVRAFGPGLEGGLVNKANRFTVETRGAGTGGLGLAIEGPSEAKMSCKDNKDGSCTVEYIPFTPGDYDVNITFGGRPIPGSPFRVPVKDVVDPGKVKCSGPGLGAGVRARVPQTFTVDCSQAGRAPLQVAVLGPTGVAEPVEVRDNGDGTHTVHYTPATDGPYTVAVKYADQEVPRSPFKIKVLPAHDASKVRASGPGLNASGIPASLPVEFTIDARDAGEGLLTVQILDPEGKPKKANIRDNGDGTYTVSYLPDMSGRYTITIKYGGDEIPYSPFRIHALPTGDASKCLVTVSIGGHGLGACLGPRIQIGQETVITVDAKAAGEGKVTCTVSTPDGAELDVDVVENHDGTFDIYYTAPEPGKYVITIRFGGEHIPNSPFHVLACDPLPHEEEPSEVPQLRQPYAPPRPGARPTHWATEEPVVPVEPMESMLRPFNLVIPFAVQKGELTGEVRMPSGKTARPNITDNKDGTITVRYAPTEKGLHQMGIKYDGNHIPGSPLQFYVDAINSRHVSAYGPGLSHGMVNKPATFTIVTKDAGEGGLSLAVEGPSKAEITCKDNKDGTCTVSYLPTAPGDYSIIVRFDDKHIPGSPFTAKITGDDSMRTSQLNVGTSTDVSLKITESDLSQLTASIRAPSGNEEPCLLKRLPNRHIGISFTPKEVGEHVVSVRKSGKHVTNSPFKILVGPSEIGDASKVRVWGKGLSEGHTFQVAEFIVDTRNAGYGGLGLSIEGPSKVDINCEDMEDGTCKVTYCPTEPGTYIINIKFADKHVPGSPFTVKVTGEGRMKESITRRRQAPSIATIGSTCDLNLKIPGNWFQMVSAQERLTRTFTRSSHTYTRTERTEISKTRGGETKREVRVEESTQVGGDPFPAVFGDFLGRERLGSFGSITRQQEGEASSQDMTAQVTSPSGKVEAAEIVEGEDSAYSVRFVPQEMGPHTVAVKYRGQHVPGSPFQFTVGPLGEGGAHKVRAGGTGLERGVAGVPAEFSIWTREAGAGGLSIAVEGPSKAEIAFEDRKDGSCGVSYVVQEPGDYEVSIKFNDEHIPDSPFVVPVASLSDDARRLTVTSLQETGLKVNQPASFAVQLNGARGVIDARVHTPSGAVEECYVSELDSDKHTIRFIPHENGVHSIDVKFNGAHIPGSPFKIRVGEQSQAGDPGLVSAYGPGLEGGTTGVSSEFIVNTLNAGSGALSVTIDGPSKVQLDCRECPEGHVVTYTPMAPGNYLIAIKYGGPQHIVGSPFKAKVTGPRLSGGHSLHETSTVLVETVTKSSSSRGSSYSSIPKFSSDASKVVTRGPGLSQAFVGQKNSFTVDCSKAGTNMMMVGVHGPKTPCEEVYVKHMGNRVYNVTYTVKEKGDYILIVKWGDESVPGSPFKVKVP

Molecule: ALSRQL^PSSGVSEI [^P82HspB1_76–88, Peptide from human HspB1 phosphorylated at S82, captured in part in crystal structure]
binding to HspB1_84–170 in crystal [1]: structure of HspB1_84–170 bound to ALSRQL^PSSGVSEI

Molecule: HspB1_77–171: Human HspB1 ACD extended at the N-terminus to encompass the principle phosphorylation region (PPR)
oligomeric state [3]: populates a monomer-dimer equilibrium

Molecule: ^2PHspB1_77–171: Human HspB1 ACD and PPR with phosphomimic substitutions S78E and S82D
oligomeric state [3]: phosphomimicry shifts the oligomeric state toward the monomer

B1: HspB1_(80–88) peptide (peptide, UniProt P04792 80-88, looked up)
peptide: QLSSGVSEI
notes: The methods say that N termini were acetylated 'when the N-terminal residue was Glu'; this peptide begins with Gln, so whether it was acetylated is open; also called unphosphorylated peptide; source: synthetic peptide, bought: Biomatik
stoichiometry N [4]: ≤ 2
binding result [5]: binds
Kd [6]: 130 ± 17 µM
stoichiometry N [6]: ≤ 3
activation required for the transition of unfolding intermediate B to final state C of FLNC_(d18–21) with one peptide bound (coulombically steered unfolding, IM-MS) [7]: ~60 V

Other lines, results leading:

other: inflection point(s) of breakdown curve [2]: stronger; reference ≈55 and ≈110
Molecule: HspB1 (Hsp27) 80-88 (from UniProt P04792) pS82 HspB1 80-88 peptide

binding result [8]: binds
B2: ^P82HspB1_(76–88), peptide mimic of the PPR phosphorylated at Ser82 (peptide)
peptide: ALSRQL[pS]SGVSEI
notes: human HspB1 residues 76 to 88; Only 3 to 6 residues of the peptide could be built in the density; also called PPR peptide; source: synthetic peptide, bought: Biomatik
